Biological target: the molecule itself
Test: crystal structure

B1: native rat liver glycine N-methyltransferase (enzyme, UniProt P13255 2-293, looked up)
chain: VDSVYRTRSLGVAAEGIPDQYADGEAARVWQLYIGDTRSRTAEYKAWLLGLLRQHGCHRVLDVACGTGVDSIMLVEEGFSVTSVDASDKMLKYALKERWNRRKEPAFDKWVIEEANWLTLDKDVPAGDGFDAVICLGNSFAHLPDSKGDQSEHRLALKNIASMVRPGGLLVIDHRNYDYILSTGCAPPGKNIYYKSDLTKDITTSVLTVNNKAHMVTLDYTVQVPGAGRDGAPGFSKFRLSYYPHCLASFTELVQEAFGGRCQHSVLGDFKPYRPGQAYVPCYFIHVLKKTG
modifications: acetylated N-terminal valine (Val1)
  stoichiometry N: 4
